Data from US20170265788A1.
pKd: −log10 of the molar value.

Key:
p53 (Santa Cruz sc-4246) [1] = biological target: p53 (Santa Cruz sc-4246) (UniProt P04637); experiment: LSPR fiber tip probe, first of three devices, Langmuir fit
p53 (Santa Cruz sc-4246) [2] = biological target: p53 (Santa Cruz sc-4246) (UniProt P04637); experiment: LSPR fiber tip probe, third of three devices, Langmuir fit
p53 (Santa Cruz sc-4246) [3] = biological target: p53 (Santa Cruz sc-4246) (UniProt P04637); experiment: LSPR fiber tip probe, shift vs. concentration, Langmuir fit
p53 (Santa Cruz sc-4246) [4] = biological target: p53 (Santa Cruz sc-4246) (UniProt P04637); experiment: LSPR fiber tip probe, second of three devices, Langmuir fit
p53 (Santa Cruz sc-4246) [5] = biological target: p53 (Santa Cruz sc-4246) (UniProt P04637); experiment: LSPR fiber tip probe, antibody on gold nanorod, 1 nM p53 in PBS
p53 (Santa Cruz sc-4246) [6] = biological target: p53 (Santa Cruz sc-4246) (UniProt P04637); experiment: LSPR fiber tip probe, antibody on gold nanorod, 18.92 nM p53 in PBS
p53 (Santa Cruz sc-4246) [7] = biological target: p53 (Santa Cruz sc-4246) (UniProt P04637); experiment: LSPR fiber tip probe, shift vs. concentration, Langmuir fit (FIG. 3B)
p53 (Santa Cruz sc-4246) [8] = biological target: p53 (Santa Cruz sc-4246) (UniProt P04637); experiment: UV-Visible spectroscopy of antibody-coated gold nanorods in solution, resonance shift vs. concentration, Langmuir fit

UniProt P04637, sequence (P04637 whole entry): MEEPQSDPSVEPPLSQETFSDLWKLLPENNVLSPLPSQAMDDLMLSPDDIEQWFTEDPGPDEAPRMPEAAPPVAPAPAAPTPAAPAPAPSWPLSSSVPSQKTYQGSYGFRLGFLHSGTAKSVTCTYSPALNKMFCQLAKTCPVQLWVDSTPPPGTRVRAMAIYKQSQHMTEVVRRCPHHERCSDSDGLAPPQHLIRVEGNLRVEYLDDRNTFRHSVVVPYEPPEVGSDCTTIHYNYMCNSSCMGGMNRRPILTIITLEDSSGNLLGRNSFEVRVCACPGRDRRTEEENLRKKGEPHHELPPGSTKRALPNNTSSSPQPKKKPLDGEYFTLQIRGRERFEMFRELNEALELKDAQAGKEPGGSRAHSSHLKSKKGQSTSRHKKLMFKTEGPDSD

pKd (p53 (Santa Cruz sc-4246) [1]): 8.26
pKd (p53 (Santa Cruz sc-4246) [2]): 8.15
pKd (p53 (Santa Cruz sc-4246) [3]): 8.26
pKd (p53 (Santa Cruz sc-4246) [4]): 8.38
LSPR shift (p53 (Santa Cruz sc-4246) [5]): 0.55 nm
LSPR shift (p53 (Santa Cruz sc-4246) [6]): 5.13 nm
pKd (p53 (Santa Cruz sc-4246) [7]): 8.27
pKd (p53 (Santa Cruz sc-4246) [8]): 8.37
Substance: p53 antibody (Santa Cruz sc-126)
